The values that follow come from patent US8361965B2, “Recombinant chimeric protein of neutrophil inhibitory factor and hirugen, and pharmaceutical composition thereof” (Lunan Pharmaceutical Group Corporation, priority 2008, dated 2013).

One assay relates to blood coagulation system. Briefly: effects on blood coagulation system of New Zealand rabbits in vitro (APTT, PT, TT). Further details: PT: unit not given beside the values; APTT / TT: unit not given here. The format is biochemical, New Zealand rabbit. How it is done: Medicaments were diluted to the following concentrations for use: TNHH: 3.0 mg/ml; 1.0 mg/ml; 333 μg/ml; bivalrudin: 600 μg/ml; 200 μg/ml; 67 μg/ml; Hirudin: 660 μg/ml; 220 μg/ml; 73 μg/ml.
The blood was sampled from six New Zealand rabbits (10×1.8 ml for each one) from marginal ear vein and added into 10 anticoagulation tubes, respectively. 3.2% sodium citrate (9:1) was added for anticoagulation.
20 μl anticoagulated blood was taken from each tube, followed by the addition of 20 μl above diluted medicaments for each tube. 20 μl physiological saline was added into the control tube. Samples were mixed thoroughly and centrifuged at 3000 rpm/min for 3 min, and plasma was send to Department of Clinical Laboratory, Southwest Hospital for determining blood coagulation indexes (APTT, TT and PT) with a full automatic coagulation analyzer and the difference before and after administration was obtained by comparison.

For assay [1], the system named is platelet aggregation induced by human thrombin. The assay is described as follows: antiplatelet aggregation assay (rabbits dosed i.v., thrombin-induced aggregation of PRP). The format is in vivo, Japanese Giant Ear White Rabbits. To be noted: for aggregation ratio, difference: before vs 15 min after. The procedure:
Platelet aggregation rate was determined by puncture of the central artery of the ear before administration, and then rabbits were randomly divided into 5 groups (4 in each group) based on the platelet aggregation rate and body weight: (1) negative control group (5.12 mg mannitol/kg), (2) high dose TNHH group (4.0 mg/kg), (3) middle dose TNHH group (2.0 mg/kg), (4) low dose TNHH group (1.0 mg/kg), and (5) positive control group (0.1 mg recombinant hirudin/kg). The rabbits in each group were administered at the dose respectively via intravenous injection from the marginal ear vein. Blood samples were collected at the time of 15 min after administration (timed by stopwatch) by puncture of the central artery of the ear to determine the platelet aggregation rate. The method of platelet aggregation rate determination was described as follows: the blood samples were collected by puncture of the central artery of the ear using silicified syringe. 3.8% anticoagulant sodium citrate solution (blood: anticoagulant=9:1) was used. The sample was centrifuged at 200×g for 8 min, and the supernatant obtained was platelet-rich plasma (PRP); then the remaining part was centrifuged again at 2200×g for 10 min, and the supernatant obtained was platelet-poor plasma (PPP). The platelet in PRP was counted as approximate 4.0×10^5/mm^3. According to Born's turbidimetry, a turbidimetric tube with 200 μl PRP and a small magnetic bar was placed in a platelet aggregation instrument and incubated at 37 for 1 min. After calibrating with PPP, the platelet was induced to aggregate by adding inductive human thrombin (0.76 IU/ml) under stirring. The effect of medicaments on the aggregation of platelet was analyzed using the aggregation curve and the maximum aggregation rate obtained from the instrument. The maximum aggregation rate was calculated according to the formula below: […]

Where [2] appears, read: TNHH 3.33 μg/ml in rabbit blood.
Setting [3] is: TNHH 10.00 μg/ml in rabbit blood.
The mark [4] stands for this setting: TNHH 30.00 μg/ml in rabbit blood.

B1: TNHH: recombinant chimeric protein of neutrophil inhibitory factor and hirugen, Met-NIF-GGGGG-FPRPGSGG-Hirugen (SEQ ID NO: 3), expressed in E. coli (protein)
chain: MNEHNLRCPQNGTEMPGFNDSIRLQFLAMHNGYRSKLALGHISITEESESDDDDDFGFLPDFAPRASKMRYLEYDCEAEKSAYMSARNCSDSSSPPEGYDENKYIFENSNNISEAALKAMISWAKEAFNLNKTKEGEGVLYRSNHDISNFANLAWDAREKFGCAVVNCPLGEIDDETNHDGETYATTIHVVCHYPKINKTEGQPIYKVGTPCDDCSEYTKKADNTTSADPVCIPDDGVCFIGSKADYDSKEFYRFRELGGGGGFPRPGSGGNGDFEEIPEEYL
modifications: N-terminal Met
For the molecule B1, the APTT with blood coagulation system (setting [2]) is recorded as 33.73 ± 6.35; in the assay on blood coagulation system (setting [3]), 31.87 ± 4.46; in the assay on blood coagulation system (setting [4]), 38.08 ± 5.53. The values for the PT in the assay with blood coagulation system (setting [2]), with blood coagulation system (setting [3]) and with blood coagulation system (setting [4]) were 7.08 ± 0.28, 7.15 ± 0.24 and 7.27 ± 0.38, respectively. In addition, the TT is given as 17.13 ± 1.46 in the assay on blood coagulation system (setting [2]), 20.43 ± 1.59 in the assay on blood coagulation system (setting [3]) and 30.00 ± 4.81 in the assay with blood coagulation system (setting [4]). Also, the figures for the “aggregation ratio, Before administration” value in assay [1] (TNHH 1.0 mg/kg group), in assay [1] (TNHH 2.0 mg/kg group) and in assay [1] (TNHH 4.0 mg/kg group) were 57.19 ± 4.42%, 59.62 ± 7.22% and 59.23 ± 6.30%, respectively. The “aggregation ratio, 15 min after administration” value in assay [1] (TNHH 1.0 mg/kg i.v.) came to 36.27 ± 12.13%; in assay [1] (TNHH 2.0 mg/kg i.v.), 19.33 ± 10.25%; in assay [1] (TNHH 4.0 mg/kg i.v.), 9.22 ± 4.51%. The “aggregation ratio, difference” value in assay [1] (TNHH 1.0 mg/kg i.v.) is 20.82 ± 7.98 %; in assay [1] (TNHH 2.0 mg/kg i.v.), 30.30 ± 9.92 %; in assay [1] (TNHH 4.0 mg/kg i.v.), 50.92 ± 4.33 %.
